Data reported in publication PMC10667928.

Columns and labels:
[1] = target: Xiphophorus multilineatus melanocortin 4 receptor, wild-type A allele (Mc4r A) (X. multilineatus); assay: FRET or BRET; FRET-FLIM (pulsed interleaved excitation) on fixed HEK293T cells, basal or apical membrane; first-named protomer with C-terminal eGFP (donor, written as binder), second with C-terminal mCherry (acceptor, written as target); donor/acceptor ratio 1:1 at transfection; lifetime-based FRET efficiency Eτ against donor-only samples
[2] = target: Xiphophorus multilineatus melanocortin 4 receptor, mutant B1 allele (Mc4r B1) (X. multilineatus); assay: as above
[3] = target: Xiphophorus multilineatus melanocortin 4 receptor, wild-type A allele (Mc4r A) (X. multilineatus); assay: FRET or BRET; FRET-FLIM data of the fixed cells sorted by stoichiometry (<0.3, 0.3-0.5, 0.5-0.7, >0.7); dimerization grade by equation (8): β1AR as monomer baseline, CD28 at stoichiometry <0.3 as 100%
[4] = target: Xiphophorus multilineatus melanocortin 4 receptor, mutant B1 allele (Mc4r B1) (X. multilineatus); assay: as above
[5] = target: Xiphophorus multilineatus melanocortin 4 receptor, mutant B2 allele (Mc4r B2) (X. multilineatus); assay: as above
[6] = target: Xiphophorus multilineatus melanocortin 4 receptor, wild-type A allele (Mc4r A) (X. multilineatus); assay: FRET or BRET; FRET-FLIM (pulsed interleaved excitation) on fixed HEK293T cells, basal or apical membrane; first-named protomer with C-terminal eGFP (donor, written as binder), second with C-terminal mCherry (acceptor, written as target); donor/acceptor ratio 1:5 at transfection; lifetime-based FRET efficiency Eτ against donor-only samples
[7] = target: Xiphophorus multilineatus melanocortin 4 receptor, mutant B1 allele (Mc4r B1) (X. multilineatus); assay: as above
[8] = target: Xiphophorus multilineatus melanocortin 4 receptor, mutant B2 allele (Mc4r B2) (X. multilineatus); assay: as above
[9] = target: human chimeric MC4R chim7 (named Mut in this study) (human) (UniProt P32245); assay: as above

Row | FRET efficiency Eτ [1] | donor (eGFP) lifetime; donor-only 2.13 ns [1] | FRET efficiency Eτ [2] | dimerization grade at stoichiometry 0.3-0.5 [3] | dimerization grade at stoichiometry <0.3 [3] | dimerization grade at stoichiometry 0.3-0.5 [4] | dimerization grade at stoichiometry <0.3 [4] | dimerization grade at stoichiometry 0.3-0.5 [5] | dimerization grade at stoichiometry <0.3 [5] | FRET efficiency Eτ [6] | donor (eGFP) lifetime; donor-only 2.13 ns [6] | FRET efficiency Eτ [7] | FRET efficiency Eτ [8] | FRET efficiency Eτ [9] | Substance
1 | 12.7% | 1.85 ns | 15.4% | 26% | 76% | 28% | 52% | 28% | 52% | 26.1% | 1.57 ns | 21.6% | 23.8% |  | Xiphophorus multilineatus melanocortin 4 receptor, wild-type A allele (Mc4r A)
2 |  |  |  |  |  |  |  |  |  |  |  |  |  | 19.6% | human MC4R wild-type (from UniProt P32245 1-332) (receptor)
